# In patent US20180155451A1 (published 2018):
# T1: FcγRIIa H (human, UniProt P12318 34-217)
# T1 construct: extracellular domain; also called FcgRIIa H type; 2aH
# T1 sequence (looked up): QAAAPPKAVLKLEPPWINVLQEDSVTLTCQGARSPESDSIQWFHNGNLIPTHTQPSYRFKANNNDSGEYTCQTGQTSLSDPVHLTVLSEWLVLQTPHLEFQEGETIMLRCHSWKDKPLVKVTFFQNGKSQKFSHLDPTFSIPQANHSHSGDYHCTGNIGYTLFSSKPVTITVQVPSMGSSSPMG
# T2: FcγRIIb (human, UniProt P31994 43-217)
# T2 construct: extracellular domain; also called FcgRIIb; 2b
# T2 sequence (looked up): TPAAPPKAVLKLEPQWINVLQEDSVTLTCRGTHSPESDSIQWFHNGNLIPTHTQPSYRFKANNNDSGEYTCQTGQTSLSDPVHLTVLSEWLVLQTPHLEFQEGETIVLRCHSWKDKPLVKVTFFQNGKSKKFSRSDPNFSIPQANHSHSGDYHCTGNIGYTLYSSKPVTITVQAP
# T3: FcγRIIb extracellular domain with C-terminal His tag (human, UniProt P31994 43-217)
# T3 construct: extracellular domain; Soluble receptor expressed in FreeStyle293 cells, used as analyte in Biacore; also called FcgRIIb; 2b; not shown: His tag at the C terminus
# T3 sequence (looked up): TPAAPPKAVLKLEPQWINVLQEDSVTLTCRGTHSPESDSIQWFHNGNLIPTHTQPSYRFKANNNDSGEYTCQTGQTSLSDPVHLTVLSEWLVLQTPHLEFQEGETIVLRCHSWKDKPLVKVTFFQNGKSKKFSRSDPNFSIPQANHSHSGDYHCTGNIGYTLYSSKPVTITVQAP
# T4: FcγRIIb (human, UniProt P31994 43-217)
# T4 construct: extracellular domain; also called FcgRIIb; 2b; not shown: His tag at the C terminus
# T4 sequence (looked up): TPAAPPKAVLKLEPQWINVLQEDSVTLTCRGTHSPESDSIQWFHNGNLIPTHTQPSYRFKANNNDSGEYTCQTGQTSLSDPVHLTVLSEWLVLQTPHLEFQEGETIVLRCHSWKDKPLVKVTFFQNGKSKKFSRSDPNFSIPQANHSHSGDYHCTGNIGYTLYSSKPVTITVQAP
# Legend:
# FcγRIIa H = molecular target: T1, FcγRIIa H; assay: SPR (Biacore), antibody captured on antigen-peptide chip, FcγR as analyte; binding relative to GpH7-A5/GpH7-B3/GpL16-k0 = 100
# FcγRIIb [1] = molecular target: T2, FcγRIIb; assay: as above
# [2] = molecular target: T5, FcγRIIIa extracellular domain with C-terminal His tag (human, UniProt P08637 17-208); assay: SPR; He/Con_3a divided by He/Con_2b (FcγRIIIa over FcγRIIb)
# T5 construct: extracellular domain; also called FcgRIIIa; 3a; not shown: His tag at the C terminus
# T5 sequence (P08637 17-208): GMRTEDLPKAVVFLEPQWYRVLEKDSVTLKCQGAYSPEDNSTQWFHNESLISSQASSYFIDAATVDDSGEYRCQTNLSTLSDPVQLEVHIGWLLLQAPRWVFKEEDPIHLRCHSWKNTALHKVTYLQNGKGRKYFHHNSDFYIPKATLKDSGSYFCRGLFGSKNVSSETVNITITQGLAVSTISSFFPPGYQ
# Protocol: (§1) Analysis of interaction between objective antibody and the FcγR was carried out using Biacore T100 (GE Healthcare). HBS-EP+ (GE Healthcare) was used as the running buffer, and the measurement temperature was set to 25° C. Chips produced by immobilizing the antigen peptide by the amine coupling method to a Series S Sencor Chip CM5 (GE Healthcare), or alternatively, chips produced by allowing preliminarily biotinylated antigen peptides to interact with and immobilize onto a Series S Sensor Chip SA (certified) (GE Healthcare) were used. Antibodies of interest were captured onto an antigen peptide-immobilized chip, and allowed to interact to each FcγR diluted with running buffer. To regenerate and repeatedly use the chip, the antibodies captured on the chip were washed off by reacting 10 mM glycine-HCl, pH 1.5.
# (§2) The FcγR-binding activity of each antibody was assessed primarily using as an indicator the FcγR-binding activity and dissociation constant for FcγR.
# [3] = molecular target: T3, FcγRIIb extracellular domain with …; assay: SPR (Biacore), antibody captured on antigen peptide chip, FcγR as analyte
# Protocol: as §1, §2
# [4] = molecular target: T5, FcγRIIIa extracellular domain with …; assay: as above
# Protocol: as §1, §2
# FcγRIa = molecular target: T6, FcγRIa (human, UniProt P12314 16-292); assay: SPR (Biacore), antibody captured, FcγR as analyte; binding as % of GpH7-A5/GpH7-B3/GpL16-k0
# T6 construct: extracellular domain; also called FcgRI; 1a; not shown: His tag at the C terminus
# T6 sequence (P12314 16-292): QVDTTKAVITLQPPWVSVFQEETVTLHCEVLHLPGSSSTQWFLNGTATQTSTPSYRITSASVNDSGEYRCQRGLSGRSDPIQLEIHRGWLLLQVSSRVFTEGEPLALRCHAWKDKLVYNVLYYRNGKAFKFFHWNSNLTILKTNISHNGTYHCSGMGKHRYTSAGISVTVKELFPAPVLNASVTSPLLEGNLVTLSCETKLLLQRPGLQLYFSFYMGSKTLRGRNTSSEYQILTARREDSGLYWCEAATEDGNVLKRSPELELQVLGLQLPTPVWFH
# FcγRIIb [5] = molecular target: T4, FcγRIIb; assay: as above
Binder,He/Con_2aH (FcγRIIa H),He/Con_2b (FcγRIIb [1]),He_3a/2b (IIIa/IIb) [2] [ratio],He/Con_2b [3],He/Con_3a [4],He/Con_1a (FcγRIa),He/Con_2b (FcγRIIb [5])
"GpH7-A5/GpH7-B3 variant P331_03V/GpL16-k0 (antibody, human IgG1, kappa, Heterodimerized anti-glypican-3 IgG1; P331V (EU) only in the GpH7-B3 chain; also called He Ab) heavy 1: not shown heavy 2: not shown light: DIVMTQSPLSLPVTPGEPASISCQASESLVHSNRNTYLHWYLQKPGQSPQLLIYKVSNRFSGVPDRFSGSGSGTDFTLKISRVEAEDVGVYYCSQNTHVPPTFGQGTKVEIERTVAAPSVFIFPPSDEQLKSGTASVVCLLNNFYPREAKVQWKVDNALQSGNSQESVTEQDSKDSTYSLSSTLTLSKADYEKHKVYACEVTHQGLSSPVTKSFNRGEC",–,–,0.62,119 relative binding (GpH7-A5/GpH7-B3/GpL16-k0 = 100),73.2 relative binding (GpH7-A5/GpH7-B3/GpL16-k0 = 100),–,–
"GpH7-A5/GpH7-B3 variant L328_14T/GpL16-k0 (antibody, human IgG1, kappa, Heterodimerized anti-glypican-3 IgG1; L328T (EU) only in the GpH7-B3 chain; also called He Ab) heavy 1: not shown heavy 2: not shown light: DIVMTQSPLSLPVTPGEPASISCQASESLVHSNRNTYLHWYLQKPGQSPQLLIYKVSNRFSGVPDRFSGSGSGTDFTLKISRVEAEDVGVYYCSQNTHVPPTFGQGTKVEIERTVAAPSVFIFPPSDEQLKSGTASVVCLLNNFYPREAKVQWKVDNALQSGNSQESVTEQDSKDSTYSLSSTLTLSKADYEKHKVYACEVTHQGLSSPVTKSFNRGEC",–,–,0.53,141 relative binding (GpH7-A5/GpH7-B3/GpL16-k0 = 100),75.3 relative binding (GpH7-A5/GpH7-B3/GpL16-k0 = 100),–,–
"GpH7-A5/GpH7-B3 variant L328_07I/GpL16-k0 (antibody, human IgG1, kappa, Heterodimerized anti-glypican-3 IgG1; L328I (EU) only in the GpH7-B3 chain; also called He Ab) heavy 1: not shown heavy 2: not shown light: DIVMTQSPLSLPVTPGEPASISCQASESLVHSNRNTYLHWYLQKPGQSPQLLIYKVSNRFSGVPDRFSGSGSGTDFTLKISRVEAEDVGVYYCSQNTHVPPTFGQGTKVEIERTVAAPSVFIFPPSDEQLKSGTASVVCLLNNFYPREAKVQWKVDNALQSGNSQESVTEQDSKDSTYSLSSTLTLSKADYEKHKVYACEVTHQGLSSPVTKSFNRGEC",–,–,0.52,160 relative binding (GpH7-A5/GpH7-B3/GpL16-k0 = 100),84 relative binding (GpH7-A5/GpH7-B3/GpL16-k0 = 100),–,–

# More lines, now with the values ahead:
He/Con_2aH (FcγRIIa H),He/Con_2b (FcγRIIb [1]),He_3a/2b (IIIa/IIb) [2] [ratio],He/Con_2b [3],He/Con_3a [4],He/Con_1a (FcγRIa),He/Con_2b (FcγRIIb [5]),Binder
103 % of HeCon Ab,99.4 % of HeCon Ab,–,–,–,–,–,"GpH7-A5/GpH7-B3 variant T335_06M/GpL16-k0 (antibody, human IgG1, kappa, Heterodimerized anti-glypican-3 IgG1; substitution in only one H chain (the GpH7-B3 chain); also called He Ab) heavy 1: not shown heavy 2: not shown light: DIVMTQSPLSLPVTPGEPASISCQASESLVHSNRNTYLHWYLQKPGQSPQLLIYKVSNRFSGVPDRFSGSGSGTDFTLKISRVEAEDVGVYYCSQNTHVPPTFGQGTKVEIERTVAAPSVFIFPPSDEQLKSGTASVVCLLNNFYPREAKVQWKVDNALQSGNSQESVTEQDSKDSTYSLSSTLTLSKADYEKHKVYACEVTHQGLSSPVTKSFNRGEC"
–,–,0.56,142 relative binding (GpH7-A5/GpH7-B3/GpL16-k0 = 100),78.6 relative binding (GpH7-A5/GpH7-B3/GpL16-k0 = 100),–,–,"GpH7-A5/GpH7-B3 variant L328_06M/GpL16-k0 (antibody, human IgG1, kappa, Heterodimerized anti-glypican-3 IgG1; L328M (EU) only in the GpH7-B3 chain; also called He Ab) heavy 1: not shown heavy 2: not shown light: DIVMTQSPLSLPVTPGEPASISCQASESLVHSNRNTYLHWYLQKPGQSPQLLIYKVSNRFSGVPDRFSGSGSGTDFTLKISRVEAEDVGVYYCSQNTHVPPTFGQGTKVEIERTVAAPSVFIFPPSDEQLKSGTASVVCLLNNFYPREAKVQWKVDNALQSGNSQESVTEQDSKDSTYSLSSTLTLSKADYEKHKVYACEVTHQGLSSPVTKSFNRGEC"
–,–,0.48,149 relative binding (GpH7-A5/GpH7-B3/GpL16-k0 = 100),71.7 relative binding (GpH7-A5/GpH7-B3/GpL16-k0 = 100),–,–,"GpH7-A5/GpH7-B3 variant L328_13S/GpL16-k0 (antibody, human IgG1, kappa, Heterodimerized anti-glypican-3 IgG1; L328S (EU) only in the GpH7-B3 chain; also called He Ab) heavy 1: not shown heavy 2: not shown light: DIVMTQSPLSLPVTPGEPASISCQASESLVHSNRNTYLHWYLQKPGQSPQLLIYKVSNRFSGVPDRFSGSGSGTDFTLKISRVEAEDVGVYYCSQNTHVPPTFGQGTKVEIERTVAAPSVFIFPPSDEQLKSGTASVVCLLNNFYPREAKVQWKVDNALQSGNSQESVTEQDSKDSTYSLSSTLTLSKADYEKHKVYACEVTHQGLSSPVTKSFNRGEC"
–,–,–,–,–,93.6 % of control,104 % of control,"GpH7-A5/GpH7-B3 variant I332_04F/GpL16-k0 (antibody, human IgG1, kappa, heterodimerized IgG1; alteration in the GpH7-B3 H chain only; also called He Ab) heavy 1: not shown heavy 2: not shown light: DIVMTQSPLSLPVTPGEPASISCQASESLVHSNRNTYLHWYLQKPGQSPQLLIYKVSNRFSGVPDRFSGSGSGTDFTLKISRVEAEDVGVYYCSQNTHVPPTFGQGTKVEIERTVAAPSVFIFPPSDEQLKSGTASVVCLLNNFYPREAKVQWKVDNALQSGNSQESVTEQDSKDSTYSLSSTLTLSKADYEKHKVYACEVTHQGLSSPVTKSFNRGEC"
